Assay results taken from article PMC12709241.
Read-outs that look alike come from different tables or passages of the source.

Experiments:
[1] = biological target: microtubules (assembled from porcine brain tubulin, rhodamine-labeled, paclitaxel-stabilised) (porcine) (UniProt P02550); experiment: optical trapping
[2] = biological target: microtubules (assembled from porcine brain tubulin, rhodamine-labeled, paclitaxel-stabilised) (porcine) (UniProt P02550); experiment: optical trapping; remark: listed apart in the source

“KinΔC (mouse KIF5B 1-888 heavy chain with bound full-length KLC2) (from UniProt Q61768 1-888; O88448 1-599) (complex)” gave a mean detachment force (single molecule) [1] of 6.4 pN and a mean detachment force (single molecule) [2] of 6.3 pN.
